Patent publication US6992063 (TRUSTEES OF PRINCETON UNIVERSITY, dated 2006)

T1: DIAP1-BIR2 (residues 201-325) (Drosophila, UniProt Q24306 201-325)
T1 construct: range 201-325; Expressed as a GST fusion; the GST moiety was removed by thrombin cleavage; also called BIR2 domain of DIAP1; DIAP-BIR2
T1 sequence (looked up): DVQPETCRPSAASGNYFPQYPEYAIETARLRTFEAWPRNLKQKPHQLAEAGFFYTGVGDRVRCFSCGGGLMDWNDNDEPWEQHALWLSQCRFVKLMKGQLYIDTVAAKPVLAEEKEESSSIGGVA

T2: DIAP1-BIR1 (residues 1-145) (Drosophila, UniProt Q24306 1-145)
T2 construct: range 1-145; Expressed as a GST fusion; the GST moiety was removed by thrombin cleavage; also called BIR1 domain of DIAP1
T2 sequence (looked up): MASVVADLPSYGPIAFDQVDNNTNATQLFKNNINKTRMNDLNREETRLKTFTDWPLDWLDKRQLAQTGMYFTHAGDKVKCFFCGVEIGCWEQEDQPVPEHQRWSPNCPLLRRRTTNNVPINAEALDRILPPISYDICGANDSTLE

T3: XIAP-BIR3 (residues 238-358), P98170
T3 chain: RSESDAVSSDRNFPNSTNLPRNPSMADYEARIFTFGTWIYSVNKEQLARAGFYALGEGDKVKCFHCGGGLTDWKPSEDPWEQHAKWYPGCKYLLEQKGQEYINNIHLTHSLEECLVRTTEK

T4: Smac (Phe33Asp, residues 1-162), monomeric mutant (human, UniProt Q9NR28 56-217, A selenomethionyl form (Met replaced by Se-Met) was used only for phasing. The native crystals hold the plain protein.)
T4 construct: Residues 1-162 and position 33 count on mature Smac, not on the precursor entry; Expressed in E. coli from pET-3d for crystallisation; a selenomethionyl form was used for phasing; also called mutant Smac protein; monomeric Smac protein
T4 sequence: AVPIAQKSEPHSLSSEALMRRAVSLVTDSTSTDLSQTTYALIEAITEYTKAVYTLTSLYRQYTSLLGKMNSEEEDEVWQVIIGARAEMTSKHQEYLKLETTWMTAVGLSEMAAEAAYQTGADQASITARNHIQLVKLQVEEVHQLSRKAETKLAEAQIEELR

B1: 10-residue Hid peptide (N-terminal peptide of Hid) (peptide)
peptide: AVPFYLPEGG
B2: 10-residue Grim peptide (N-terminal peptide of Grim) (peptide)
peptide: AIAYFIPDQA
B3: caspase-9 (protein)
chain: MDEADRRLLRRCRLRLVEELQVDQLWDALLSRELFRPHMIEDIQRAGSGSRRDQARQLIIDLETRGSQALPLFISCLEDTGQDMLASFLRTNRQAAKLSKPTLENLTPVVLRPEIRKPEVLRPETPRPVDIGSGGFGDVGALESLRGNADLAYILSMEPCGHCLIINNVNFCRESGLRTRTGSNIDCEKLRRRFSSLHFMVEVKGDLTAKKMVLALLELAQQDHGALDCCVVVILSHGCQASHLQFPGAVYGTDGCPVSVEKIVNIFNGTSCPSLGGKPKLFFIQACGGEQKDHGFEVASTSPEDESPGSNPEPDATPFQEGLRTFDQLDAISSLPTPSDIFVSYSTFPGFVSWRDPKSGSWYVETLDDIFEQWAHSEDLQSLLLRVANAVSVKGIYKQMPGCFNFLRKKLFFKTS
B4: XIAP-BIR3 (residues 238-358) (other, mammalian, UniProt P98170 238-358, looked up)
chain: T3 chain
notes: Overexpressed as a GST fusion (pGEX-2T) and purified as in Chai et al. 2000; also called BIR3 domain of XIAP; third BIR domain of XIAP

What was measured:
[1] = target: B4; assay: isothermal titration calorimetry
[2] = target: T1, DIAP1-BIR2 (residues 201-325); assay: isothermal titration calorimetry, 23 °C
Procedure: Isothermal microcalorimetry titration. All proteins and peptides was prepared in 50 mM sodium phosphate buffer, pH 7.5. The Micro Calorimetry System (Microcal, Amherst, Mass.) was used to perform the ITC measurements for the interaction between DIAP1-BIR2 and various synthetic peptides. The titration data, collected at 23° C., were analyzed using the ORIGIN data analysis software (Microcal Software, Northampton, Mass.).

[3] = target: T2, DIAP1-BIR1 (residues 1-145); assay: gel filtration of BIR domain with excess peptide, then reverse phase HPLC and mass spectroscopy
Procedure: (§1) In vitro interaction assay. […] The mixture was fractionated by gel filtration chromatography (Superdex-200, Pharmacia). The protein-containing fractions were analyzed by reverse phase HPLC and mass spectroscopy for detection of the bound peptide.

[4] = target: T1, DIAP1-BIR2 (residues 201-325); assay: gel filtration and mass spectroscopic analyses (data not shown)
Procedure: as §1
Rationale and structure determination.

[5] = target: T3, XIAP-BIR3 (residues 238-358), P98170
[6] = target: T4, Smac (Phe33Asp, residues 1-162), …; assay: reconstituted binary complex, in solution and co-crystallised
Procedure: Crystallization and data collection. […] At 23° C., the reservoir contained 100 mM citrate buffer, pH 5.5, 5% PEG 4000, and 10% isopropanol. Crystals appeared after 1–4 days and reached a maximum size over a period of 1–3 weeks. Both crystals are in the triclinic space group P1 and contain two complexes in each unit cell. […] Diffraction data were primarily collected using an R-AXIS-IV imaging plate detector mounted on a Rigaku 200HB generator. Derivatives were obtained by soaking crystals in reservoir buffer containing 20% glycerol (v/v) and heavy atoms. The concentration and soaking time for mercury thimerosal were 1 mM and 20 hours, respectively. To collect data at −170° C., crystals were equilibrated in a cryoprotectant buffer containing reservoir buffer plus 20% glycerol (v/v) and were flash frozen in a cold nitrogen stream. The high-resolution native data were collected at the NSLS beamline X4A.

Binder: B1
fold difference in binding affinity between the Hid and Grim peptides [1]: ~100 fold | fold higher binding affinity than the Grim peptide [2]: 6 fold | binding result [3]: no binding

Binder: B2
binding result [1]: binds | binding result [4]: binds | binding result [3]: no binding

Binder: B3
caspase-9 activity (cleavage of Ac-LEHD-AFC), direct assay [5]: the inhibition of caspase-9 by the BIR3 domain of XIAP

Binder: B4
binding result [6]: binds
